Holding throughout (assay): discontinuous malachite green phosphate-release assay, Michaelis-Menten fit
Holding throughout (format): biochemical, Pasteurella multocida
Conditions in all cases: 200 mM sodium acetate pH 5.5, 1 mM MgCl2, 37 °C, apparent Km

Substrate in data set [1]: Nc1ncnc2c1ncn2[C@@H]1O[C@H](CO)[C@@H](OP(=O)(O)O)[C@H]1O
Substrate in data set [2]: O=[N+]([O-])c1ccc(OP(=O)(O)O)cc1
Substrate in data set [3]: NC(=O)c1ccc[n+]([C@@H]2O[C@H](COP(=O)([O-])O)[C@@H](O)[C@H]2O)c1
Substrate in data set [4]: Nc1ncnc2c1ncn2[C@@H]1O[C@H](CO)[C@@H](O)[C@H]1OP(=O)(O)O
Substrate in data set [5]: Nc1ncnc2c1ncn2[C@@H]1O[C@H](COP(=O)(O)O)[C@@H](O)[C@H]1O

The record followed here is article PMC3086075.

B1: rPmCCAP (Pasteurella multocida) (protein)
chain: SNQQAVEQANQAKLQQQVAMGLIWTQQSGEYAALAHQAFNSAKMAFDHAKAKKGKKKAVVVDLDETMIDNSAYAGWQVQSGQGFSPKTWTKWVDARQSAAIPGAVEFSNYVNANGGTMFFVSNRRDDVEKAGTVDDMKRLGFTGVNDKTLLLKKDKSNKSVRFKQVEDMGYDIVLFVGDNLNDFGDATYKKSNAERRDFVAKNSKAFGKKFIVLPNTQYGDWEGGLDKNYFKGDSQSKLDVRAKAIHAWDGK
With B1, the Km in data set [1] worked out at 800 ± 200 µM; in data set [2], 500 ± 100 µM; in data set [3] it was 290 ± 60 µM; in data set [4], 1400 ± 300 µM; in data set [5], 80 ± 10 µM. Besides, the kcat came out at 0.19 ± 0.01 s⁻¹ in data set [1]; 6.2 ± 0.5 s⁻¹ in data set [2]; 4.4 ± 0.3 s⁻¹ in data set [3]; 0.13 ± 0.01 s⁻¹ in data set [4]; 0.18 ± 0.01 s⁻¹ in data set [5]. In addition, the kcat/Km was 240 ± 61 M⁻¹ s⁻¹ in data set [1]; 12000 ± 2700 M⁻¹ s⁻¹ in data set [2]; 15000 ± 3300 M⁻¹ s⁻¹ in data set [3]; 90 ± 21 M⁻¹ s⁻¹ in data set [4]; 2300 ± 310 M⁻¹ s⁻¹ in data set [5].

As usually defined, the Km is the substrate concentration at which the rate is half of its maximum. In general, kcat refers to the maximal rate divided by the concentration of active sites. As a reminder, the kcat/Km is the turnover number divided by the Michaelis constant.
